Experimental data published in US20240392002A1 (EXELIXIS, published 2024).
Numbering of substitutions follows the chain as printed. Names may count otherwise.

B1: I2C-13 IgG1 (antibody, V domains shown)
VH: EVQLVESGGGLVQPGGSLRLSCAASGFTFSSYGIHWVRQAPGKGLEWVAYIHSGIGYTIYADSVKGRFTISADTSKNTAYLQMNSLRAEDTAVYYCARTSSTSTSVMDYWGQGTLVTVSS
VL: DIQMTQSPSSLSASVGDRVTITCRASQSVSSAVAWYQQKPGKAPKLLIYSASSLYSGVPSRFSGSRSGTDFTLTISSLQPEDFATYYCQQTYWSPGTFGQGTKVEIK
notes: human IgG1
B2: I2C-15 IgG1 (antibody, V domains shown)
VH: EVQLVESGGGLVQPGGSLRLSCAASGFTFSSYFIHWVRQAPGKGLEWVALIYPDTDDTYYADSVKGRFTISADTSKNTAYLQMNSLRAEDTAVYYCARYGYLGVGAFDYWGQGTLVTVSS
VL: B1 VL with T91L, S94T
notes: human IgG1
B3: I2A-35 IgG1 (antibody, V domains shown)
VH: EVQLVESGGGLVQPGGSLRLSCAASGFTFSAYDIHWVRQAPGKGLEWVAWIDPYGGDTDYADSVKGRFTISADTSKNTAYLQMNSLRAEDTAVYYCARSPSYMQYGGLDYWGQGTLVTVSS
VL: B1 VL with T91Y, W93S, P95L, G96L
notes: human IgG1
B4: I2C-14 IgG1 (antibody, V domains shown)
VH: EVQLVESGGGLVQPGGSLRLSCAASGFTFESYDIHWVRQAPGKGLEWVAAIFSYGGYTTYADSVKGRFTISADTSKNTAYLQMNSLRAEDTAVYYCARGSYGDGRGMDYWGQGTLVTVSS
VL: B1 VL with T91Y, W93Y, S94W
notes: human IgG1
B5: I2C-7 IgG1 (antibody, V domains shown)
VH: EVQLVESGGGLVQPGGSLRLSCAASGFTFDSYYIHWVRQAPGKGLEWVAWIDPYGLDTKYADSVKGRFTISADTSKNTAYLQMNSLRAEDTAVYYCAREPGDYGMDYWGQGTLVTVSS
VL: B1 VL with T91A, W93G, P95L, G96L
notes: human IgG1
B6: I2C-22 IgG1 (antibody, V domains shown)
VH: EVQLVESGGGLVQPGGSLRLSCAASGFTFSSYSIHWVRQAPGKGLEWVAAIYPYWGTTEYADSVKGRFTISADTSKNTAYLQMNSLRAEDTAVYYCARPSGVTYGYALDYWGQGTLVTVSS
VL: B1 VL with T91Y, W93Y, G96W
notes: human IgG1
B7: I2C-18 IgG1 (antibody, V domains shown)
VH: EVQLVESGGGLVQPGGSLRLSCAASGFTFAGYPIHWVRQAPGKGLEWVAAIDPDGGYTYYADSVKGRFTISADTSKNTAYLQMNSLRAEDTAVYYCARHTGFHRYRGMDYWGQGTLVTVSS
VL: B1 VL with T91Y, S94F, G96P
notes: human IgG1
B8: I2C-21 IgG1 (antibody, V domains shown)
VH: EVQLVESGGGLVQPGGSLRLSCAASGFTFSSYYIHWVRQAPGKGLEWVAWIDPYISYTYYADSVKGRFTISADTSKNTAYLQMNSLRAEDTAVYYCARDSELVSGYAMDYWGQGTLVTVSS
VL: B1 VL with T91G, Y92D, W93S, P95L, G96V
notes: human IgG1
B9: I2C-5 IgG1 (antibody, V domains shown)
VH: EVQLVESGGGLVQPGGSLRLSCAASGFTFSSYDIHWVRQAPGKGLEWVAWIYPYWGYTIYADSVKGRFTISADTSKNTAYLQMNSLRAEDTAVYYCARGTYAPALDYWGQGTLVTVSS
VL: B1 VL with T91F, W93S, S94Y, P95L, G96S
notes: human IgG1
B10: I2C-25 IgG1 (antibody, V domains shown)
VH: EVQLVESGGGLVQPGGSLRLSCAASGFTFSDYYIHWVRQAPGKGLEWVAYIAPYGGFTYYADSVKGRFTISADTSKNTAYLQMNSLRAEDTAVYYCARDSYRRGYVSGFDYWGQGTLVTVSS
VL: B1 VL with T91R, W93S, G96S
notes: human IgG1
B11: I2C-19 IgG1 (antibody, V domains shown)
VH: EVQLVESGGGLVQPGGSLRLSCAASGFTFTSYDIHWVRQAPGKGLEWVAWIDPGLSYTSYADSVKGRFTISADTSKNTAYLQMNSLRAEDTAVYYCARASIGGGVPVMDYWGQGTLVTVSS
VL: B1 VL with T91Y, Y92V, W93T, S94G, G96Y
notes: human IgG1
B12: I2C-3 IgG1 (antibody, V domains shown)
VH: EVQLVESGGGLVQPGGSLRLSCAASGFTFSHYWIHWVRQAPGKGLEWVALIAPGGDYTSYADSVKGRFTISADTSKNTAYLQMNSLRAEDTAVYYCARSGLPGFDYWGQGTLVTVSS
VL: B1 VL with T91Y, Y92K, W93S, G96L
notes: human IgG1
B13: I2A-24 IgG1 (antibody, V domains shown)
VH: EVQLVESGGGLVQPGGSLRLSCAASGFTFSTYGIHWVRQAPGKGLEWVAAIYPGTSYTGYADSVKGRFTISADTSKNTAYLQMNSLRAEDTAVYYCAREYFMGMDYWGQGTLVTVSS
VL: B1 VL with T91Y, W93Y, S94W
notes: human IgG1
B14: I2C-26 IgG1 (antibody, V domains shown)
VH: EVQLVESGGGLVQPGGSLRLSCAASGFTFSDYYIHWVRQAPGKGLEWVADIDSYGGFTYYADSVKGRFTISADTSKNTAYLQMNSLRAEDTAVYYCARDPHFLDDVYVLDYWGQGTLVTVSS
VL: B1 VL with T91Y, Y92S, S94G, P95L, G96W
notes: human IgG1
B15: I2A-8 IgG1 (antibody, V domains shown)
VH: EVQLVESGGGLVQPGGSLRLSCAASGFTFYGYYIHWVRQAPGKGLEWVAGIRPGGTYTYYADSVKGRFTISADTSKNTAYLQMNSLRAEDTAVYYCARYRYPAFDYWGQGTLVTVSS
VL: B1 VL with T91R, Y92R, W93Q, S94H, P95L, G96W
notes: human IgG1
B16: I2A-37 IgG1 (antibody, V domains shown)
VH: EVQLVESGGGLVQPGGSLRLSCAASGFTFSWYGIHWVRQAPGKGLEWVAYIDSYTSSTYYADSVKGRFTISADTSKNTAYLQMNSLRAEDTAVYYCARSHFGHYDYVMDYWGQGTLVTVSS
VL: B1 VL with T91A, W93D, S94Q, P95L, G96Y
notes: human IgG1
B17: I2A-12 IgG1 (antibody, V domains shown)
VH: EVQLVESGGGLVQPGGSLRLSCAASGFTFTTYYIHWVRQAPGKGLEWVAYISPEDGYTSYADSVKGRFTISADTSKNTAYLQMNSLRAEDTAVYYCARAYYSAVMDYWGQGTLVTVSS
VL: B1 VL with T91S, Y92W, W93S, S94P, P95A, G96T
notes: human IgG1
B18: I2A-33 IgG1 (antibody, V domains shown)
VH: EVQLVESGGGLVQPGGSLRLSCAASGFTFDDYYIHWVRQAPGKGLEWVAWIDSYGGYTSYADSVKGRFTISADTSKNTAYLQMNSLRAEDTAVYYCARSSYYYPGGFDYWGQGTLVTVSS
VL: B1 VL with T91W, Y92D, W93S, S94T, P95L, G96Y
notes: human IgG1
B19: I2A-30 IgG1 (antibody, V domains shown)
VH: EVQLVESGGGLVQPGGSLRLSCAASGFTFDSYFIHWVRQAPGKGLEWVAYIYSWGSYTHYADSVKGRFTISADTSKNTAYLQMNSLRAEDTAVYYCARGHRRYFALDYWGQGTLVTVSS
VL: B1 VL with T91V, W93F, S94T
notes: human IgG1

target: T1, ROR1 Ig-like domain (human, UniProt Q01973 42-147); assay: BLI, IgG1 on biosensor, soluble ROR1 domain
T1 construct: also called Acro Cat. No. RO1-H5221
From the text: (§1) To measure binding affinity in ROR binder discovery campaigns, the VL and VH domains identified in the phage screen described above were formatted into a bivalent monospecific native human full-length IgG1 architecture and immobilized to a biosensor on an Octet (Pall ForteBio) biolayer interferometer. Soluble ROR antigens, including the extracellular domains of ROR1 (Acro Cat. No. RO1-H522γ) and ROR2 (Acro Cat. No. R02-H52E5), as well as the individual ROR1 Frizzled (Acro Cat. No. RO1-H5222), Ig-like (Acro Cat. No. RO1-H5221), and Kringle (Acro Cat. No. RO1-H5223) domains, were then added to the system and binding measured.
(§2) ROR binding candidates, formatted in the bivalent monospecific native human full-length IgG1 architecture, were further characterized for binding to ROR1 and/or ROR2. […] ROR binding candidates were also characterized for their binding to specific ROR1 domains.

T1 sequence (Q01973 42-147): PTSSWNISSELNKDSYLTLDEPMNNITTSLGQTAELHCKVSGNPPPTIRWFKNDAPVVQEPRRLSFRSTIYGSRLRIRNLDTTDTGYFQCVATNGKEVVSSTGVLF

Binder | binding result
B1 | binds
B2 | binds
B3 | binds
B4 | binds

target: T2, extracellular domain of human ROR1 (human, UniProt Q01973 30-406); assay: BLI, IgG1 on biosensor, soluble ROR ectodomain
T2 construct: bought protein; biotinylated in the bivalent assay format; also called Acro Cat. No. RO1-H522y
From the text: as §1, §2

T2 sequence (Q01973 30-406 limits assumed): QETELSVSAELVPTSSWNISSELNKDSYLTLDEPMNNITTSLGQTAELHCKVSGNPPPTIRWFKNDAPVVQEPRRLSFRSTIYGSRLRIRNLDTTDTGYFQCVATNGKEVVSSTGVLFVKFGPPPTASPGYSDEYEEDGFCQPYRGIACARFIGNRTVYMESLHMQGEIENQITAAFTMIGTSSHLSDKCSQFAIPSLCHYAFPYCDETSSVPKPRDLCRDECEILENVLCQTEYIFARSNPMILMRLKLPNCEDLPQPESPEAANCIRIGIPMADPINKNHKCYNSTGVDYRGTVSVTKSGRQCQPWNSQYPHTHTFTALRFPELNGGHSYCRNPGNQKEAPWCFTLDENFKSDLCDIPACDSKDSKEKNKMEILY

Binder | binding result
B1 | binds
B5 | no binding
B6 | binds
B7 | binds
B8 | no binding
B9 | no binding
B10 | no binding
B11 | no binding
B2 | binds
B4 | binds
B12 | no binding
B13 | binds
B14 | no binding

target: T3, extracellular domain of human ROR2 (human, UniProt Q01974 34-403); assay: BLI, IgG1 on biosensor, soluble ROR ectodomain
T3 construct: bought protein; biotinylated in the bivalent assay format; also called Acro Cat. No. RO2-H52E5
From the text: as §1, §2

T3 sequence (Q01974 34-403 limits assumed): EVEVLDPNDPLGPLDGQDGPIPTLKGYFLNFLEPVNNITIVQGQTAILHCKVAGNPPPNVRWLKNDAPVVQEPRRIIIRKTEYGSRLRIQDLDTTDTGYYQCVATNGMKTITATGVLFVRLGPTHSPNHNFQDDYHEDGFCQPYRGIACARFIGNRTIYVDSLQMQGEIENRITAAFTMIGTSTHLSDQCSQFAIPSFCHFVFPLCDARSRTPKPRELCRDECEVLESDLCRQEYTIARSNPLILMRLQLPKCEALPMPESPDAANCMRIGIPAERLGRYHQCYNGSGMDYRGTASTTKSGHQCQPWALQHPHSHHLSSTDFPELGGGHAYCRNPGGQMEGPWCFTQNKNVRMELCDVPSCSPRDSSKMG

Binder | binding result
B1 | binds
B5 | binds
B6 | binds
B7 | binds
B8 | binds
B15 | no binding
B9 | binds
B10 | binds
B11 | binds
B2 | binds
B16 | no binding
B4 | binds
B17 | no binding
B18 | no binding
B12 | binds
B13 | binds
B19 | no binding
B14 | binds
